Measured values taken from US20220073619A1 (IMCHECK THERAPEUTICS, published 2022).
Each block holds one binder with its values, some of them ahead of it.

Columns and labels:
[1] = target: T1, Human BTN3A1 His-tagged antigen (Sino Biological Cat. No. 15973-H08H) (human, UniProt O00481 30-254); test: SPR Biacore T200, single cycle kinetics, BTN3A1-His captured on anti-His CM5 chip, IgG as analyte, bivalent analyte model (ka 2), 25 C
T1 construct: Bought recombinant protein; also called recombinant human BTN3A1-His; not shown: His tag
T1 sequence (O00481 30-254 limits assumed): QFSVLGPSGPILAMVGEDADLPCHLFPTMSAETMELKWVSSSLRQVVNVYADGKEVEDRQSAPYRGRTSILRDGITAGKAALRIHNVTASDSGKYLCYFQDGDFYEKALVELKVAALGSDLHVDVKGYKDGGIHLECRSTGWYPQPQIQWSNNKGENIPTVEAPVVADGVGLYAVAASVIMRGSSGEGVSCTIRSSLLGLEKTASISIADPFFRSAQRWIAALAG
Method: (§1) Human BTN3A1 His-tagged antigen (Sino Biological, Beijing, China) was diluted in running buffer to a final concentration of 0.4 μg/mL. At the start of each cycle, human BTN3A1-His was captured onto Fc2 of CM5 sensor chip pre-coupled using a His capture kit (GE Healthcare, Little Chalfont, UK) with standard amine chemistry at a flow rate of 10 μL/min. An immobilization level (RL) of ˜34 RU, 16 RU or 11 RU, the different theoretical values to obtain a RMax of ˜50 RU was used for the analytes Fab, F(ab′)₂ and IgG respectively. The surface was then allowed to stabilize. Single cycle kinetic data was obtained with the purified samples (Fab, F(ab′)₂ and IgG) at a flow rate of 40 μL/min to minimize any potential mass transfer effects. The signal from the reference channel Fc1 (no antigen capture) was subtracted from that of Fc2 to correct for differences in non-specific binding to the reference surface. The signal for human BTN3A1-His blank runs (no analyte) were subtracted to correct for differences in surface stability. The association phase for the five injections of increasing concentrations was monitored for 240 seconds each time and a single dissociation phase was measured for 1400 seconds following the last injection of analyte. Regeneration of the chip surface was conducted using two injections of 10 mM glycine-HCL pH 1.5 followed by a stabilization period of 240 seconds.

[2] = target: T1, Human BTN3A1 His-tagged antigen (Sino …); test: SPR Biacore T200, single cycle kinetics, BTN3A1-His captured on anti-His CM5 chip, IgG as analyte, bivalent analyte model (kd 1), 25 C
Method: as §1

[3] = target: Human BTN3A, membrane displayed on cells (human PBMCs, Daudi cells, SKOV-3 cells) (human), O00481; test: cell-based or functional assay
[4] = target: T1, Human BTN3A1 His-tagged antigen (Sino …); test: BLI OctetRed96, antibody loaded on FAB2G (anti-human CH1) sensors, human BTN3A1 as analyte 1.87-60 nM, 1:1 model, 30 C
Method: (§2) All runs (including loading, equilibration, association/dipping of sensors into analyte, dissociation and regeneration) were performed in black 96-well plates (Greiner) at 30° C. with shaking 1000 rpm using an OctetRed96 (ForteBio). […] The association of antibody or fragments with various concentrations of human BTN3A1 (60, 30, 15, 7.5, 3.75 and 1.87 nM) was monitored for 300 s, and the dissociation was followed for typically 500 s in kinetic buffer. Fitting of the data and constant measurements were performed with the Octet Red system software (version 7.1) using the 1:1 model. A control with an irrelevant antibody was used in order to assess the absence of non-specific binding of the target protein.

[5] = target: T1, Human BTN3A1 His-tagged antigen (Sino …); test: SPR Biacore T200, single cycle kinetics, BTN3A1-His captured on anti-His CM5 chip, IgG as analyte, bivalent analyte model (ka 1), 25 C
Method: as §1

[6] = target: T1, Human BTN3A1 His-tagged antigen (Sino …); test: SPR Biacore T200, single cycle kinetics, BTN3A1-His captured on anti-His CM5 chip, IgG as analyte, bivalent analyte model (kd 2), 25 C
Method: as §1

[7] = target: T1, Human BTN3A1 His-tagged antigen (Sino …); test: SPR Biacore T200, multi-cycle kinetics, antibody captured on Protein A, BTN3A1-His as analyte, 1:1 model
Method: Purified antibodies were diluted to a concentration of 2 μg/mL in 2% BSA/PBS. At the start of each cycle, each antibody was captured on the Protein A at a density (RL) of 146.5 RU (theoretical value to obtain an RMax of ˜50 RU). Following capture, the surface was allowed to stabilize before injection of the BTN3A1 antigen (Sino Biological cat. no. 15973-H08H). BTN3A1 was titrated in 0.1% BSA/HBS-P+(running buffer) in a two-fold dilution range from 12 to 0.375 nM. The association phase was monitored for 360 seconds and the dissociation phase for 45 minutes (2700 seconds). Kinetic data was obtained using a flow rate of 40 μL/min to minimize any potential mass transfer effects. Regeneration of the Protein A surface was conducted using two injections of 10 mM glycine-HCL pH 1.5 at the end of each cycle. Two blanks (no BTN3A1) and a repeat of a single concentration of the analyte were performed for each tested antibody to check the stability of the surface and analyte over the kinetic cycles. The chimeric antibody was run twice. The signal from the reference channel Fc1 was subtracted from that of Fc2, Fc3 and Fc4 to correct for differences in non-specific binding to a reference surface. Additionally, blank runs were subtracted for each Fc to correct any antigen-independent signal variation, such as drift. […]

[8] = target: T1, Human BTN3A1 His-tagged antigen (Sino …); test: competition ELISA on coated BTN3A1-His, competitor murine 103.2
Method: Chimeric (VH0/Vκ0) and irrelevant human IgG4 (S241P, L248E) were tested on each plate for comparison.
BTN3A1 was diluted in 1×PBS to 0.5 μg/ml and 100 μL/well was coated overnight at 4° C. on a 96-well ELISA plate. The following day, the plate was washed 3× with 1×PBS/0.05% Tween (PBS-T) and blocked with 200 μL of 2% milk/PBS for 1 hour at room temperature. […] After washing the Nunc ELISA plate 3× with PBS-T, 100 μL of murine/test antibody mix was added to the ELISA plate. After one hour incubation at room temperature, the plate was washed 3 times with PBS-T and 100 μL of anti-mouse Fc HRP-labelled secondary antibody (Sigma, Dorset, UK) diluted 1:1000 in blocking buffer was applied for 1 hour at room temperature to detect bound murine antibody. The plate was washed 3 times with PBS-T following which 100 μL of TMB substrate was added and incubated for five minutes at room temperature. The reaction was stopped with 100 μl of 3.0 M hydrochloric acid and absorbance was read immediately using a Dynex plate reader at 450 nm.

[9] = target: T1, Human BTN3A1 His-tagged antigen (Sino …); test: BLI OctetRed96, Fab loaded on FAB2G (anti-human CH1) sensors, human BTN3A1 as analyte 1.87-60 nM, 1:1 model, 30 C
Method: as §2

[10] = target: T1, Human BTN3A1 His-tagged antigen (Sino …); test: SPR Biacore T200, single cycle kinetics, BTN3A1-His captured on anti-His CM5 chip, Fab as analyte, 1:1 model, 25 C
Method: as §1

[11] = target: T1, Human BTN3A1 His-tagged antigen (Sino …); test: as above; remark: listed apart in the source
Method: All single cycle kinetic experiments were run at 25° C. with HBS-P+ running buffer (pH 7.4) containing 0.1% BSA (GE Healthcare, Little Chalfont, UK).
Human BTN3A1 His-tagged antigen (Sino Biological, Beijing, China) was diluted in running buffer to a final concentration of 0.4 μg/mL. At the start of each cycle, BTN3A1-His was captured onto Fc2 of CM5 sensor chip pre-coupled using a His capture kit (GE Healthcare, Little Chalfont, UK) with standard amine chemistry at a flow rate of 10 μL/min. An immobilization level (RL) of ˜17 RU or 8 RU, the different theoretical values to obtain a RMax of ˜25 RU was used for the analytes Fab and F(ab′)₂ respectively. The surface was then allowed to stabilize. Single cycle kinetics data was obtained with the purified samples (Fab and F(ab′)₂)) at a flow rate of 40 μL/min to minimize any potential mass transfer effects. The signal from the reference channel Fc1 (no antigen capture) was subtracted from that of Fc2 to correct for differences in non-specific binding to the reference surface. […] The signal for BTN3A1-His blank runs (no analyte) were subtracted to correct for differences in surface stability. The association phase for the five injections of increasing concentrations was monitored for 240 seconds each time and a single dissociation phase was measured for 2000 seconds following the last injection of analyte. Regeneration of the chip surface was conducted using two injections of 10 mM glycine-HCL pH 1.5 followed by a stabilization period of 240 seconds.
Raw sensorgrams were fitted with a 1:1 model for Fab samples and with a bivalent analyte model for F(ab′)₂ samples in agreement with the different valences of the analytes. Kinetic constants obtained are detailed in Table 1 and Table 2.

B2: 103.2 humanized variant VH4/Vκ4 (IgG4 format of the humanization screen) (antibody, V domains shown)
VH: QVQMQQSGAEVKKPGASVKVSCKASGYAFTSYLIHWIKQRPGQGLEWIGVINPRSGDSHYNEKFKDRVTMTADQSISTAYMELSRLRSDDTAVYYCARSDYGAYWGQGTLVTVSS
VL: EIVLTQSPATLSVSPGERATLSCRASQSISNNLHWYQQKPGQAPRLLIKYASQSAFGIPARFSGSGSGTEFTLTISSLQSEDFAVYFCQQSNSWPHTFGQGTKLEIK
notes: It has the same variable regions as hu103.2, which is the later IgG1 Fc-silent construct
- affinity (KD) relative to chimeric [7]: ≤ 2 fold of 103.2 chimeric (VH0/Vκ0)
- IC50 relative to chimeric [8]: ≤ 2 fold of chimeric (VH0/Vκ0)

B5: Chimeric 103.2 Fab fragment (Fab, V domains shown)
VH: QVQMQQSGAEVVRPGTSVKVSCKASGYAFTSYLIHWIKQRPGQGLEWIGVINPRSGDSHYNEKFKDRTTLTADQSSSTAYMQLSSLTSDDSAVYFCARSDYGAYWGQGTLVTVSS
VL: DIVLTQSPVTLSVTPGDSVSLSCRASQSISNNLHWYRQKSHESPRLLIKYASQSIFGIPSRFSGSGSGTEFTLSINSVETEDFGIYFCQQSNSWPHTFGTGTKLELK
- % CD107+ of Vγ9Vδ2 T cells, co-culture with Daudi cells, fragment at 10 µg/mL [3]: 66.7%
- Kd [11]: 1.42 nM
- koff [11]: 0.000782 s⁻¹
- kon [11]: 551000 M⁻¹ s⁻¹

Further lines, results first:

- ka 2 [1]: 9.28 M⁻¹ s⁻¹
- koff [2]: 0.000352 s⁻¹
- % CD25+ of Vγ9Vδ2 T cells within PBMCs, 67 nM, 5 days [3]: 7.9%
- % CTV dilution of Vγ9Vδ2 T cells within PBMCs, 67 nM, 5 days [3]: 9.5%
- Kd [4]: 1.44 nM
- koff [4]: 0.00028 s⁻¹
- kon [4]: 194000 M⁻¹ s⁻¹
- kon [5]: 430000 M⁻¹ s⁻¹
- kd 2 [6]: 17.6 s⁻¹
B1: Humanized 103.2 (hu103.2) full-length antibody: 103.2 VH4/Vκ4 IgG1 L247F L248E P350S dK (antibody, V domains shown)
VH: QVQMQQSGAEVKKPGASVKVSCKASGYAFTSYLIHWIKQRPGQGLEWIGVINPRSGDSHYNEKFKDRVTMTADQSISTAYMELSRLRSDDTAVYYCARSDYGAYWGQGTLVTVSS
VL: EIVLTQSPATLSVSPGERATLSCRASQSISNNLHWYQQKPGQAPRLLIKYASQSAFGIPARFSGSGSGTEFTLTISSLQSEDFAVYFCQQSNSWPHTFGQGTKLEIK
notes: also called hu103.2 (IgG)

- % CD25+ of Vγ9Vδ2 T cells within PBMCs, 67 nM, 5 days [3]: 32.7%
- % CTV dilution of Vγ9Vδ2 T cells within PBMCs, 67 nM, 5 days [3]: 45.3%
- EC50 (nM) in Vγ9Vδ2 T cell degranulation assay (CD107) against Daudi [3]: 0.91 nM
- EC50 (nM) in Vγ9Vδ2 T cell degranulation assay (CD107) against SKOV-3 [3]: 0.08 nM
- Kd [9]: 2.43 nM
- koff [9]: 0.000419 s⁻¹
- kon [9]: 172000 M⁻¹ s⁻¹
- Kd [10]: 1.26 nM
- koff [10]: 0.00138 s⁻¹
- kon [10]: 1.1e+06 M⁻¹ s⁻¹
B3: Humanized 103.2 (hu103.2) Fab fragment (Fab, V domains shown)
VH: QVQMQQSGAEVKKPGASVKVSCKASGYAFTSYLIHWIKQRPGQGLEWIGVINPRSGDSHYNEKFKDRVTMTADQSISTAYMELSRLRSDDTAVYYCARSDYGAYWGQGTLVTVSS
VL: EIVLTQSPATLSVSPGERATLSCRASQSISNNLHWYQQKPGQAPRLLIKYASQSAFGIPARFSGSGSGTEFTLTISSLQSEDFAVYFCQQSNSWPHTFGQGTKLEIK

- % CD107+ of Vγ9Vδ2 T cells, co-culture with Daudi cells, antibody at 10 µg/mL [3]: 6.96%
B4: Chimeric 103.2 antibody (VH0/Vκ0), full-length IgG (antibody, V domains shown)
VH: QVQMQQSGAEVVRPGTSVKVSCKASGYAFTSYLIHWIKQRPGQGLEWIGVINPRSGDSHYNEKFKDRTTLTADQSSSTAYMQLSSLTSDDSAVYFCARSDYGAYWGQGTLVTVSS
VL: DIVLTQSPVTLSVTPGDSVSLSCRASQSISNNLHWYRQKSHESPRLLIKYASQSIFGIPSRFSGSGSGTEFTLSINSVETEDFGIYFCQQSNSWPHTFGTGTKLELK
